Here are results for 1 molecule from publication PMC8754640.

In data set [1] the target is His-PABP 4EA-Flag (Flag-PABP 4EA) (UniProt P11940 2-636, E178A;E180A;E182A;E189A). As to the kind of experiment: EMSA.
Data set [2] concerns the target His-PABP WT-Flag (Flag-PABP) (UniProt P11940 2-636). As to the kind of experiment: EMSA.

Sequence of His-PABP WT-Flag (Flag-PABP) (P11940 2-636): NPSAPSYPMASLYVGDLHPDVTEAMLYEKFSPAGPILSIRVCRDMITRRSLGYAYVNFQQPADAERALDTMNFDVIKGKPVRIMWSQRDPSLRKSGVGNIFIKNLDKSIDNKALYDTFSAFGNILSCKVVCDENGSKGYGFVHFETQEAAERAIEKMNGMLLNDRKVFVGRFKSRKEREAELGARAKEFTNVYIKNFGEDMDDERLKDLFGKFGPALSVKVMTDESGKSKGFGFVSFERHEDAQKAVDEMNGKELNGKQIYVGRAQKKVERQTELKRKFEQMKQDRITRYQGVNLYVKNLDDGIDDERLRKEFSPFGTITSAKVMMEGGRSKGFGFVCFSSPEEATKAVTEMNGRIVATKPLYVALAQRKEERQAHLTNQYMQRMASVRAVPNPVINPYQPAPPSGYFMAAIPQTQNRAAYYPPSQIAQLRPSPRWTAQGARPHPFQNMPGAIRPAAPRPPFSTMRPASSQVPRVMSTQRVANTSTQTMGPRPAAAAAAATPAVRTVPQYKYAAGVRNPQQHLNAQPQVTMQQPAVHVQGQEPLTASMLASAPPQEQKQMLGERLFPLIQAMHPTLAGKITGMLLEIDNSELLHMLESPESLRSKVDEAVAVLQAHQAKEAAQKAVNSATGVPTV
Sequence of His-PABP 4EA-Flag (Flag-PABP 4EA) (P11940 2-636 E178A/E180A/E182A/E189A): as the sequence (P11940 2-636) above, with E177A, E179A, E181A, E188A counted along it

B1: poly(A)25 (ssRNA)
RNA: AAAAAAAAAAAAAAAAAAAAAAAAA
B1: the equilibrium dissociation constant (Kd) in data set [1] was around 2.2 nM; in data set [2], around 0.5 nM.
